Target: T1, Tau peptide A6940 (biotin (bound via biotin to a streptavidin biosensor in the Octet assay; position of the biotin not stated))
T1 peptide: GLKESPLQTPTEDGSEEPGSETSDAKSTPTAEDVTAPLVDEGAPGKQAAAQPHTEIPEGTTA
Experiment: ITC

Kd: 220 nM
B1: CBTAU-28.1 (S32R[VL];E35K[VL]) (antibody, V domains shown)
VH: QVQLQQSGAEVKKPGESLKISCEASGYSFTNYWIGWVRQMPGKGLEWMGIIYPGDSDTRYSPPFQGQVTITADRSITTAYLEWSSLKASDTAMYYCARVGRPSKGGWFDPWGQGTLVTVSS
VL: DIQMTQSPDSLAVSLGERATINCESSQTLLYRSNKKNYLAWYQQKPGQPPKLLISWASTPESGVPDRFSGSGSGTSFTLTISSLQAEDVAVYYCQQYYNSPYTFGQGTRLEIK

— US20200369754A1 (published 2020)
